Where no end group is shown, it is not given here. [ ]: non-standard residue; d: D form. pS = N[C@@H](COP(=O)(O)O)C(=O)O
Experiments:
[1] = molecular target: SHARP (human SPOC domain) SPOC domain, 3477-3664 (UniProt Q96T58); test: anti-Flag co-IP, NCoR blot; details: reference: NCoR-C wild type; sites S2449,S2451
ITC = substrate: SPOC domain from murine SHARP, residues 3474-3643 (mouse) (UniProt Q62504); test: ITC

| binding against the reference [1] | Kd (ITC) [nM] | Molecule |
| --- | --- | --- |
| lost |  | NCoR NCoR-C, 1942-2453 (from UniProt Q60974) NCoR-C S2449A/S2451A |
|  | 50 | REPAPLLSAQYETL[pS]D[pS]DD [NCoR C-terminal peptide, double-phosphorylated] |

Source: PMC4889922
